The values below come from patent publication US12559545.

The test concerns the target NiVB-G (Nipah virus, strain Bangladesh).

B1: HENV-242 (antibody, V domains shown)
VH: QVQLVQSGAEVKKPGSSVTVSCKTSGGTFSGYAVSWVRQAPGQGLEWMGRIVPQFNIPNYAQKFQDRVTITADESTGTSYMELSSLRSDDTAVFYCARENIQTIFGVVAMMGGGGYFDSWGQGTLVTVSS
VL: DIQMTQSPSSLSASVGDRVTITCQANQDINTYLNWYLQKPGKAPQLLVFDASNLVTGVPSRFSGGGSRTDFTLTIDSLQPEDIGTYYCQQYDHLPRRTFTFGPGTKVDLK
What is called EC50 is the concentration at which the effect is half-maximal. The low end stands for an effect from little substance, the high end for a need for much substance. As for B1, the EC50 was determined as 7.67 nM.

B2: HENV-58 (antibody, V domains shown)
VH: QVQLVQSGAEVKKPGSSVKVSCKASGGTFSNYVISWVRQAPGQGFEWMGRIIPMIGISNYAQKFQDRVTITADKDESTTTAYMELRGLRSEDTAMYYCASSTVTEVGAWGQGTLVTVSS
VL: AIQLTQSPSSLSASIGDRVTITCRASQGISSALAWFQQKPGKPPILLIYDASSLESGVPARFSGSGSGTDFTLTISSLQPEDFATYYCQQFYNHPLTFGPGTKVDIK
B2: the EC50 came to 1.44 nM.

B3: HENV-117 (antibody, V domains shown)
VH: QVQLQQWGAGLLKPSETLSLTCDLSGGSFTNYYWTWIRHLPGKGLEWLGEINHSGRTNYSPSLKSRVTISVDTSKNQFSLRLSSVTAADTAVYYCARDIRKLAPKPHSYDLYYGMDVWGQGTTVTVSS
VL: EIVLTQSPGTLSLSPGERATLSCRASQSVGSNYLTWYQQKPGQPPRLLIYGASNRAAGIPDRFSGSGSGTDFTLTISRLEPEDFAVYYCQQYETSSRTFGQGTKVDIR
B3 registered an EC50 of 1.2 nM. This EC50 and that of the molecule before are within 1.5-fold of each other.

B4: HENV-122 (antibody, V domains shown)
VH: EVQLLESGGGLVQPGGSLRLSCAASGFTFSTNAMSWVRQAPGKGLEWVSTVSGSGAHPNYGDSVKGRFTISRVNSKNTLFLQMSSLRAEDTAIYYCARVSTVTVGGHIPRGYYFDYWGQGTLVTVSS
VL: EILLTQSPGTLSLSPGERATLSCRASQSASSSYLAWYQQKPGQAPRLLIYGASTRATGIPDRFSGSGSGTEFTLTISRLESEDFAVYYCHHYGSSRTFGQGTKVEVK
The molecule B4 had an EC50 of 0.382 nM.

B5: HENV-100 (antibody, V domains shown)
VH: QVQLVQSGAEVKKPGASVKVSCKASGYTFTSYYINWVRQAPGQGLEWVGTINPSGGSTTYAQKFQGRVTVTRDTSTSTVYMDLSGLRSGDTAVYYCARDRKGLAATPVYSDYYYGMDVWGQGTTVTVSS
VL: EIVLTQSPATLSLSPGERATLSCRASQSVSSFLAWYQQKPGQAPRLLISDASKRATGIPARFSGSGSGTDFSLTISSLEAEDFAVYYCQQSTNWRITFGQGTRLELK
The molecule B5 gave an EC50 of 0.514 nM.

B6: HENV-150 (antibody, V domains shown)
VH: EVQLLESGGGLVQPGGSLRLSCAASGFTFSSSAMSWVRQTPGKGLEWVSTISGSGANTYYAASVKGRFPISRDNSKNTLFLQMNSLRAEDTAVYYCAKVSTVTFGGHVPRGSYFDYWGQGTQVTVSS
VL: SYVLTQPPSVSVAPGQTARIPCGGNNIGSKSVHWYQQKPGQAPVLVVYDENDRPSGIPERFSASKSGNTATLTISRVEAGDEADYYCQVWDSRSDHYVFGTGTKVTVL
B6 registered an EC50 of 0.332 nM.

B7: HENV-98 (antibody, V domains shown)
VH: AVQLVESGGGLVQPGGSLRLSCEASGFTFSGYWMSWVRQAPGKGLEWVANIKGDGSEKYYVDSVKGRFTIFRDNAKTSLYLQVNSLRAEDTAVYYCARERHFLAARPGYYIYSGLDVWGPGTTVTVSS
VL: DIQMTQSPSSLSASVGDRVTITCRASQSIDNYLNWYQQKPGKVPKLLIYAASNLQSGVPSKFSGGGSGTDFTLTISSLQPDDFATYYCQQSFGTPRTFGQGTRVEIK
Molecule B7 gave an EC50 of 0.58 nM. This EC50 is about 1.7-fold higher than that of the molecule before.

B8: HENV-99 (antibody, V domains shown)
VH: QVLLVQSGAEVRKPGASVKVSCRASGYTFTDYYMHWVRQAPGQGLEWMGWINPNSGATKYAQKFQGRVTLTRDTSINTAYMELSGLRSVDTAVFYCASVPPSGFFYWGSDYWGQGTLVTVSS
VL: DVVLTQSPLSLPVTLGQPASISCRSSQSLVYSDGTTYLNWFQQRPGQSPRRLIYKVSYRDSGVPDRFSGSGSGTDFTLEISRVEAEDVGIYYCMHGTHWETWTFGQGTKVEIK
Regarding B8, the EC50 is 1.16 nM.

B9: HENV-141 (antibody, V domains shown)
VH: QVQLVQSGAEVKKPGSSVKVSCKASGGTFSSYTISWVRQAPGQGLEWMGRIIPISGITNYAQKFQGRVTITADKSTSTAYMELSSLRSEDTAVYYCAKDCYYGSGTYYGCRADYQWHHTMDVWGQGTTVTVSS
VL: DIQMTQSPSSLSASVGDRVTITCRASQGIRNDLGWFQQKPGKAPKRLIYAASSLQSGVPSRFSGSGSGTEFTLTISSLQPEDFATYFCLQHNTYPLTFGQGTKVEIK
B9 yielded an EC50 of 0.778 nM.

B10: HENV-142 (antibody, V domains shown)
VH: QVRLQESGPRLVKPSQTLSLTCTVSGGSISSRDYYWSWIRQHPGKGLEWIGYIYYSGTTYYNPSLESRVTLSLDTSKNQFSLDLTSVTAADTAVYHCARVWLGGGVFDFWGQGTLVTVSA
VL: EIVMTQSPDTLSVSPGERATLSCRASHSVTTNLAWYQQRPGQAPRLLIFDASTRATGIPARFSGSGSGTEFTLTIGSLQSEDFAVYYCQQYNDGRTFGQGTKVEIK
B10 registered an EC50 of 13 nM.

B11: HENV-184 (antibody, V domains shown)
VH: QVQLVQSGTEVKNPGSSVKVSCKASGGTFSGFGISWVRQAPGQGLEWMGGVLPIFGSPNYAQKFQGRVTITADESTGTAYMDLSSLRSDDTAMYYCARDQSGGFFDYWGQGTLVIVSS
VL: EIVLTQSPATLSLSPGERATLSCRASQSVSSNLAWYQQKPGQAPRLLIYDASDRATGVPARFSGSGSGTDFTLTISSLEPEDFALYYCQQRYNWRVTFGQGTRLEIK
Molecule B11 had an EC50 of 2.32 nM.

B12: HENV-188 (antibody, V domains shown)
VH: QVQVVESGGGVVHPGRSLRLSCAGSGFIFNNYAFHWVRQAPGGGLEWMAYISYDGRYKYYAASVRGRFTISRDDSKNTLYLQMSSLRTEDTALYYCAISDYAEPLDNWGQGTLVTVSS
VL: QIVLTQSPATLSLSPGDRATLSCRASQSVSSNVAWYQQKPGQAPRLLIYNVSNRATGIPARFSGSGSGTDFTLTISSLEPEDFAVYYCHQRTNWPLTFGGGTKVEIK
For B12, the EC50 turned out to be 1.26 nM.

B13: HENV-103 (antibody, V domains shown)
VH: QVQLQGSGPGLVKPSQTLSLTCSVSGGSVSRSGYYWGWIRQHPGKGLECIGYIYYSGITYYNPSLSGRLTISVDTSKNQFSLELSSVTAADTAVYYCARVWLGGGVFDFWGQGSLVTVSS
VL: EIVMTQSPATLSVSPGEGATLSCRASQSVSSNLAWYQQKPGQAPRLLIYDASTRATGIPARFSGSGSGTEFTLTISSLQSEDFAVYYCQQYNDWRTFGRGTKVEMR
Consider B13, for which the EC50 amounted to 1.34 nM.

B14: HENV-137 (antibody, V domains shown)
VH: EVQLVESGGGLVQPRGSLRLSCAASGFTFSGYWMSWVRQAPGKGLEWVAKIKKDGSEKTYVDSVKGRFTISRDNAKDSLYLQMNSLRAEDTAVYYCARERLLVPAAIVGLDYYYAMDVWGQGTTVTVSS
VL: DIQMTQSPSSLSASVGDRVTITCRASQNMSTYLNWYQQKPGKAPKFLIYGASRLQNGVPSRFSGGGSGTDFTLTISSLQPEDFATYYCQQSYNIPITFGQGTRLEIK
For the molecule B14, the EC50 was found to be 0.84 nM.

B15: HENV-83 (antibody, V domains shown)
VH: QVQLVESGGGVVQPGGSLRLSCAASGFTFRSYSMNWVRQAPGKGPEWMAVISYDGSNKYYTDSVKGRFTISRDNSKNTLNLQMNSLTSEDTAIYYCARFRGGGRIAARPDDYGMDVWGQGTTVTVST
VL: DIQMTQSPSSLSASVGDRVTITCRASESVITYLNWYQQKPGKAPKLLIYGASTLESGVPSRFSGSGSGTVFTLTISSLQPEDIATYYCQQSYNMSPYTFGQGTKLEIK
As to B15, the EC50 stood at 2.79 nM. This EC50 is about 3.3-fold higher than that of the molecule before.

B16: HENV-226 (antibody, V domains shown)
VH: EERLVQSGGGLAQPGQSLRLSCAGFGFTFTRYEMNWVRQAPGKGLEWIAHISTRGDTISYADSVKGRATISRDDTNNSLDLQMDSLRAEDTAIYFCARDRGSLSTRPPDSYHYYYHGMDVWGQGTTVIVSS
VL: EIVLTQSPATLSLSPGERATLSCRASQSIDTYLAWYQQKPGQAPRLLIYDASNRATGIPARFSGSGSGTDFSLTISSLEPDDFAVYYCQQRSNRPPRYTFGLGTRLEIK
As for B16, the EC50 was 0.361 nM.
